Reference: publication PMC10289234, “Construction of an alpaca immune antibody library for the selection of nanobodies against Drosophila melanogaster proteins” (Frontiers in Bioengineering and Biotechnology, 2023)
Read-outs that look alike come from different tables or passages of the source.

Assays:
[1] = biological target: Drosophila Myc, amino acids 1-400 (truncated Myc) (Drosophila melanogaster, strain not …, UniProt Q9W4S7)
[2] = biological target: T1, Drosophila CG7544, full length (Drosophila melanogaster (Fruit fly)., UniProt Q7K3B9)
[3] = biological target: T1, Drosophila CG7544, full length; assay: ELISA; 96-well plate coated with 1 ug/well purified antigen, blocked with 3% BSA; 1 ug purified VHH for 2 h at RT; anti-Flag antibody, HRP anti-mouse, TMB, absorbance at 450 nm; negative controls without Flag antibody or VHH; conditions: both partners purified
[4] = biological target: T2, Drosophila CyclinE, amino acids 1-361 (truncated CyclinE) (Drosophila melanogaster (Fruit fly)., UniProt P54733); assay: ELISA; colonies of the third-round sublibrary tested on a 96-well plate coated with CyclinE, blocked with 3% BSA; absorbance at 405 nm twofold over negative control wells counted as positive; conditions: one partner purified
T2 construct: CyclinE of Drosophila melanogaster, 709 aa, amino acids 1-361, PCR-amplified from cDNA and cloned into pET-28a-GFP-TEV; Vector pET-28a-GFP-TEV was built in the authors' laboratory; also called CycE; source: E. coli BL21 (DE3); not shown: GFP, N-terminal, cleaved
T2 sequence (P54733 1-361): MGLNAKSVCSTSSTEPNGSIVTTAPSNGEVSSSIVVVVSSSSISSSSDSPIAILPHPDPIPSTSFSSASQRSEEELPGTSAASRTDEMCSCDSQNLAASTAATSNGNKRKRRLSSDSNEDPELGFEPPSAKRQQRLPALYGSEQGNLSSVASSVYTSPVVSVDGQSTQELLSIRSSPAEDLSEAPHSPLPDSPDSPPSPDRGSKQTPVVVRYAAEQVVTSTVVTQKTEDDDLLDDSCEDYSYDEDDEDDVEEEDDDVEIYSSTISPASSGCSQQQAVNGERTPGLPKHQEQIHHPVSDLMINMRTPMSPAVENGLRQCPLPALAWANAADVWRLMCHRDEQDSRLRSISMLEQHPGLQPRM

T1 sequence (Q7K3B9 whole entry): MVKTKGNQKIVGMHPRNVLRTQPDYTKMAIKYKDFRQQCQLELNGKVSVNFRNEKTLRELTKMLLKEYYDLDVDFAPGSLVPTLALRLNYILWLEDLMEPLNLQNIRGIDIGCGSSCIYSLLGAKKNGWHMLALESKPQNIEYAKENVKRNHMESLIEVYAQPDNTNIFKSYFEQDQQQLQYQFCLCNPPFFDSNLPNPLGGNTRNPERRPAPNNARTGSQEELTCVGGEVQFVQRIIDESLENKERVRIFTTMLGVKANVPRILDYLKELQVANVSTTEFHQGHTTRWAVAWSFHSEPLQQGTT
Drosophila Myc, amino acids 1-400 (truncated Myc), sequence (Q9W4S7 1-400): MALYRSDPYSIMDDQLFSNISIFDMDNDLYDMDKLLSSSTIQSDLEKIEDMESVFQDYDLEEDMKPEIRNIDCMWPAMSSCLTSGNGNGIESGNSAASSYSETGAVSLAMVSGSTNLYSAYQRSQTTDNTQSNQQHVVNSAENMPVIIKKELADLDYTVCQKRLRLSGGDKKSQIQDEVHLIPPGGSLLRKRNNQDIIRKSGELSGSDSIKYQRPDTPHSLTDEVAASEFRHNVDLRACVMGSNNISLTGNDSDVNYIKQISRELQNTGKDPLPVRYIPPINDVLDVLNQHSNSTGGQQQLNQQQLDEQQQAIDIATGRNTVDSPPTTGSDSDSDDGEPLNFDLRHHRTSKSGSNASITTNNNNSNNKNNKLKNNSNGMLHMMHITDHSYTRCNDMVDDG

B1: C9 (VHH)
VHH: DVQLQESGGTLVQPGGSLRLSCKASGFPFSDYHMSWVRQAPGKRPEWLSVITTSGDWTHYADSVKGRFAISRDNAKSTLYLQMNSLKPDDTAVYYCARGHYIILGQGTQVTVSS
- binding result [1]: binds

B2: B12 (VHH)
VHH: DVQLQESGGGLVQPGGSLRLSCAASGFTFEAYTMSWVRQAPGKGLEWVSAISQGGATTAYADSVKGRFTISRDNAKSTLYLQMNNLKPEDTAVYYCAKWVFTPSVLGQGTQVTVSS
- binding result [1]: binds

B3: C4 (VHH)
VHH: DVQLQESGGGLVQPGGSLRLSCAASGFTFDSNAFGWFRQAPGKEREGVSCISARDSTTFYADAVKGRFTVSRDSAKNTVYLEMDSLKPEDTAVYYCATLYRATAQAMCAMSTLLGYWGQGTQVTVSS
- Kd [2]: 10.5 µM

B4: C3, nanobody against CG7544 (Flag-Nb-His) (VHH)
VHH: DVQLQESGGGLVQAGGSLRLSCAASGNTLSTYGMGWFRQAPGKEREFVALINWGGTANYEDSVKGRFTISRDNVQNTMYLQMNNLKPEDTAVYYCFLGTYWGQGTWSPSPA
notes: not shown: Flag, N-terminal, kept
- binding result [3]: binds

B5: N1, VHH of a colony from the third-round sublibrary of CyclinE (VHH)
VHH: DVQLQESGGGLVQAGGSLRLSCAASGGTFSRYSMGWFRQAPGKEREFVSAIGWSGYSTRYADSVKGRFTISRDNAKNTVYLQMNSLKPEDTAVYYCNAIVGVFIKRQYWGQGTQVTVSS
notes: The colony ELISA follows Fang et al., 2020; source: randomly selected colony from the third-round sublibrary of CyclinE (vhh in phage display vector pADL-10b), not purified
- binding result [4]: binds

B6: C8 (VHH)
VHH: DVQLQESGGGLVQAGGSLRLSCAASGLTSSYYAIGWFRQAPGKDSEGVSCLDTTGNRINLSNSAKGRFTISRDNAKNTVYLQMNNLKPEDTAIYYCTVVLNSLCDSRWIGAFGSWGQGTQVTVSS
- binding result [2]: binds
